Experimental data: patent US20030027764A1

Tests used:
Assay in all cases: cell-based or functional assay
[1] = molecular target: Bee venom (Apis melifera) PLA2 (Apis mellifera) (UniProt P00630)
[2] = molecular target: daboiatoxin, the major PLA2 toxin of Daboia russelli siamensis venom (Daboia russelli siamensis)
[3] = molecular target: Taipoxin (Oxyuranus scutellatus PLA2) (Oxyuranus scutellatus) (UniProt P00614)
Taipoxin (Oxyuranus scutellatus PLA2) (Oxyuranus scutellatus), sequence (P00614 whole entry, chain 1 of 3): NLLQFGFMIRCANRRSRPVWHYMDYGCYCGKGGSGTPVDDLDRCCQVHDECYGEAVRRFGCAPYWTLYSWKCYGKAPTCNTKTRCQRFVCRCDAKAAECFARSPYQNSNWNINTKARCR
Taipoxin (Oxyuranus scutellatus PLA2) (Oxyuranus scutellatus), sequence (P00615 28-145, chain 2 of 3, further chain): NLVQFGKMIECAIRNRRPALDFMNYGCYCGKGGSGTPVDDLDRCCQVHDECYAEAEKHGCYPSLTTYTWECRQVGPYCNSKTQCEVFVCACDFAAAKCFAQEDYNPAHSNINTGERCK
Taipoxin (Oxyuranus scutellatus PLA2) (Oxyuranus scutellatus), sequence (P00616 20-152, chain 3 of 3, further chain): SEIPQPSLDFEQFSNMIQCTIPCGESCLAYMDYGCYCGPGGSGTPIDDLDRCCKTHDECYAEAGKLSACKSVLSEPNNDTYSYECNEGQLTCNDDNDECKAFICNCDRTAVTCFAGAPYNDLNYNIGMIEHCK

recombinant Python Antitoxic Factor (PAF), later renamed Phospholipase Inhibitor from Python (PIP),, sequence (Q9I8P7 20-201): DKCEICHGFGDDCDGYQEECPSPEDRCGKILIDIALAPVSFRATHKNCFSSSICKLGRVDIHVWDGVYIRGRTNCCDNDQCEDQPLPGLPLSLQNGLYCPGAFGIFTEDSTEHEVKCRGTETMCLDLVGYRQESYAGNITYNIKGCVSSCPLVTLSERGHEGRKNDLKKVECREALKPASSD
Bee venom (Apis melifera) PLA2 (Apis mellifera), sequence (P00630 34-167): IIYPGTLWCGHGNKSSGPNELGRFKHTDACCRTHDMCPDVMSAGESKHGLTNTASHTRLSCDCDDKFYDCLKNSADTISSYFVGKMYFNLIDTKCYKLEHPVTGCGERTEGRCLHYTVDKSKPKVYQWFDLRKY

With anti-inflammatory peptide-2 from Sigma the % Inhibition of paw oedema; Bee venom PLA2 (1 µg) + 100 µg AIP-2 [1] was 33.6% and the % Inhibition of paw oedema; DbTx (1 µg) + 100 µg AIP-2 [2] was 35.3%.

“recombinant Python Antitoxic Factor (PAF), later renamed Phospholipase Inhibitor from Python (PIP), (from UniProt Q9I8P7 20-201)” gave a % Inhibition of paw oedema; Bee venom PLA2 (1 µg) + 50 µg PIP [1] of 39.9%, a % Inhibition of paw oedema; Bee venom PLA2 (1 µg) + 100 µg PIP [1] of 78.1% and a % Neutralisation [3] of 50%. For the same substance, the % Inhibition of paw oedema; DbTx (1 µg) + 50 µg PIP [2] was 89.2% and the % Inhibition of paw oedema; DbTx (1 µg) + 100 µg PIP [2] was 92.2%.
